In the NTF2 design screens of Basanta et al. (2020):

Test: protease stability score; higher = more stable; yeast display proteolysis, trypsin and chymotrypsin;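 note: relative to predicted unfolded state with 0 unfolded-like and 1 meaning tenfold more protease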

## SDEMEEYEDFMKRVLEALETGDFREIRHLFDPDVKIHIDGRDIVGRESYTEHVRKWREDLGFDHIHLKIHDVKLFDGQIHVDARLEIRIGDKRDSHNVEFRLHKVDGQWLVRRVHVH
  protease stability score: 1.6

## SDEQEISEFILRIWLELVLTGDEKMMKKLFDPNTRFEINGVDIHGMESIAEHLLREREEWRSHITLTDREIQGDKVRVHTILKVDINGQHLRHHTRIIIIIINGRIHSIHIRVE
  protease stability score: 0.673

## SDEQEMLTRIIEIFFHAVLTGDEETLIEMLDPHARLDVNGVTVIGMEKIWHHVEEMRFKDTKIHDIDVQGNKMKVDGRLDGQINGREHRFRTIIIIEKINGKWLVKRIIIL
  protease stability score: 2.44

## SDEQRDVKFMLDQWLRSIETGNEDEIRHLVDPNVRSDINGQTHHGRDEYVRHMVEIRVILESIELHDLRWQGDKIDVDAIVQGTIIVNGRKTRFIERVHLHSVKVNGRWEIKEYRVV
  protease stability score: 1.42

## SDETKRLEEHLKHRFRSMVTGNEEDISRLMDPNAKLIVGDKEFHGREIVLKLLLRWAHEMRLRHEEVEEIHIIGDYVRINGILHMEVGDKSIEIHTVIIILKIDGRWRDKTEHYG
  protease stability score: 0.654

## SDEYRRNHDLARDYVELFRTGNEEHLYELADPNTMLHIGEFQSHGREHVYEWLEKIHRHWGWENVEFRLESMQVQGDYATIHGLHKFNGRFIRMDHIIVVINGRMESIRVEIR
  protease stability score: 0.397

## SDFEEEMKESFRLWVHALMTGDEDLLVELVDPDVRLHVGDKDFHGREHFRRWVHEFILRADHHIIHLRDFDVQGDKLHLHTQVDIKVNGQRHHTRVRIIAIKVDGRWVLTQFDVI
  protease stability score: 2.27

## SDFEEITRKITEIITRAFFTGDWRQIERLMDPEVRNELTIGDKRIERHGRENLVHLLEEAGIDVIRIRSVEIRFFNGRLEVRIDHEVTINGVHFKTVIVVIMIKIDGRWVVHSWSFHFE
  protease stability score: 0.959

## SDHDEISHDMFRLWLELHLTGDPKVLADLFDPRVRLILEVGDKRIEVHGREEFERWYREEMRHLRIEHIHIEHVEVQGEKVHAIIEVHTHVNGRRHIHKTHITMDFIDGRFKRMKIDVK
  protease stability score: 2.14

## SDHDKRVMHIWRAVLESYLTGDEHTLKELIDPNTRFFIGDKEYHGMETFSRYARRMYEHLRFSIEVKHEDAINGRYDTHLTLHWEIGDKTDTYDTRLHLDVYDGVVKRLEIRVH
  protease stability score: 1.46

## SDHEHMILHYARHVLELWFTGDWEIFEKLADPRAKMTVNGQELHGRESVSKWMHDKKEEIRMRDLRIHHIDVQGDFVILHLRVDFEVNGQRIDTHIEIYILVVNGQLREIEIREK
  protease stability score: 0.853

## SDHRRLLEELLKIIIKAMMTGDESTLERMFDPNVRINIDGVDDHGWESFDRMFHELRIDHARVEYIDVVNGRARVHTNFEVHFDGRRIHWETEIVVVIVNGRNREVSIIRH
  protease stability score: 0.739

## SDIDELDRELMEHTLRTIRTGDEETVHRLLDPDARTLINGREYHGREWATKMMSDWNRELGIDHLEIKHVDLINGKVRIDVKITVGDKEFHMTMVYNKVNGKWINHSIHIH
  protease stability score: 0.409

## SDIDNEADNLLRELSEVHQTGDWKTLLELADPNVQLIVNGRDLHGWEHLARRFTELRIHHVDHRIKHIHSYDGRVDLDGRLHYDGEINGRRDILHHEVSVHTKKIDGRWIISNIQIN
  protease stability score: -0.21

## SDIEDESEKFVRMFLHSYETGDWKSLREMFDPNARTIIGDKHTHGRELAVELWEDLFKRLGIKHIEVTHVHIRVINGRIDVRIEVHLNQGEFRYHIIIIVHVTKFNGVWLLTEFRIEEK
  protease stability score: 1.27

## SDIEDHAIEFFSNELWSWHTGDEHDLKKLLDPNARIYINGVEVHGRERVLEDLIENMRRRGVRVNEVRVRDFHIVGNFLHFDVRIKYRVGDKILTYEVRILVLKIDGVWFFSELRIE
  protease stability score: 1.55

## SDIEEMYRINLEIFEHSQQTGDWRMISHMADPNVRISVGDKEIHGRELFEKHLRDTVEKLGAEVHWELNHVRIQGDKLLVRGHLRIKYGDKHETFDIELYADKVDGKWLIHEIRVD
  protease stability score: 1.44

## SDKDHLFKWAVRHLLEFTQTGNWEHMEHYLDPNVRLNFHIDGVSIERHGMEFLKKLLRDLSEDAGLDNINVQLHSFEIQGEKVNIHLKETFNGRHHETHNVVFKFDGRWKLTKSEVFFL
  protease stability score: 0.913

## SDKDKEFEKLFREYLRDLLTGDEESLRRLIDPNARFSYEVGDKTEERHGREEAVRWIIEIRIHSFRLRNSTYIGDKMHLEVESDGQYDGKRRFTEVHIEIILINGRVHEVHVWYV
  protease stability score: 1.01

## SDKEEEAHRLLELLIHWYRTGDFETWRQLMDPHVRNVVDVNGRELHHHGREEVTDSLRFFWEHLGIKHVHFRHVEVQGDKIKLHGQQRVDGQEHQSDFIFIIVDGRVKFIFIHLR
  protease stability score: 0.649

## SDLDDMATKLIHEWIHAELTGDFKRIEELIDPHVRIVIEVNGRRIELIGREELRRWLEEWMEEMRHEIKLTHIEVQGEKTHVDTHLVIRAENHSYHHKTSRIFIIINGRMHSIHVHIR
  protease stability score: 1.7

## SDLDEEARRWLEKHLKNFFTGDWDKFMNNVDPNVRYIVGDKHKIGMESFSKDEKEHRDQYDHLEFRIHHEDTYGEKAVSDMHVTYHINGREIRRRVHLSFLVINGKIKSVRIEFE
  protease stability score: 0.469

## SDLDEVARHATQLIEEVQQTGDWHTLMRLADPNTRLLIGDKVIHGMTELIRILDELYERWGVSKVKVRLHDVRVQGDKVDVDTRSEFNGREVKVRFIIRKVDGRWHLKSVEEHLD
  protease stability score: 1.12

## SDLDHQARRALEETFKAFETGDEHTWNRLVDPHVRLNVNGQEFHGMELIREWFKQDRDELRLKTIELKRVSVQGDYVHIDSTYYYEYNGQHRILEVHIHAVKFDGRWVVKRIHIH
  protease stability score: 0.662

## SDLDHRLRKLAEDLSRILETGNWRLMHKLADPNVKEDINGVEFHGRELLVKWLEDLLKELRVHFRVDHYDIQGNFLRVEITNNVFINGVQKVRDERLEVNMFDGKEKENRVRVE
  protease stability score: 0.717

## SDLDKLAIKIAKILVKNLETGNEKMLEHLLDPHVKLHIDGVTFIGREEVNKWVKHELDEMRSRWEVHDRRTQGEYAHTDSRMYLHINGKDIEIEVTIIFNVVNGRVTFIEHRIH
  protease stability score: 0.084

## SDLDQEMKTWLEETIRLLNTGNEEEWTKLADPNARVEIGDKHYHGWESLEELRKIFGVEKIDYRFTRIEVQGEKADSDVRIEVNGRELHVRLIIVVVNGRHKSMRVIFG
  protease stability score: 1.99

## SDLDRLLEEMAKRFVEVMLTGDEEIMKELIDPNARVDWDGVEIHGWKEISEWLKEEIERQENYRYEFEFRDLDVIGNKAVFFTDLHFNINGRRIRTHSVYKVNVVNGKVKHVHVEIR
  protease stability score: 1.21

## SDLEDEFREFLEEWIKHWLTGDEETLFHLADPHAQIDINGREHHGMDEWMHILLKHLKELGARIEIRIEDIRVQGEKTEVDGNLILHINGRRKELKVELIVRVVNGRLKSIEIRIH
  protease stability score: 1.02

## SDLEEEALNLAREWMHNWVTGNEEREEELLDPNVRSDINGRHFHGRERISRMIRYLLDEIRVHDVKEHDMEIQGEKVRIDGRIDGEVNGKRKILVMHFHIVVIDGVIHSVEVRIE
  protease stability score: 1.18

## SDLEEEINRFLTELLRDWETGNWKAFADLLDPHTRVLIDGKEHHGREIFLEHNHQLGIKHREFELKKFRIFENRVEFDGTLHLVYGDKRVHREIHIIILKIDGRWKITEIRFL
  protease stability score: 1.54

## SDLEERSKSALHHLEEVLRTGDEDESRLMLDPNVRSVYDGREFHGRELVTELLSAFLKHLRIRDVKVERVEMNENEVRWDMKIDGTVGDKRYETHVHIIVVKVNGRWFLKEVRFG
  protease stability score: 1.39

## SDLEEVIRKHIEELEESRRTGDEESLWRLLDPNTLKVVGDKRIHGMEAVAEIETFHDRRVKNATDRLNLREVHTQGDKLTIRGELILDWDGVKINVHVRLEILKFDGRWIIHRIEVK
  protease stability score: 0.715

## SDLEKETEELTRLFLENLVTGDEKTARELIDPHAMTDIGDFHIHGRDRTFRHIEELWRHWGVDRIRIHHDHIDIQGNKSYIEGTIHINGQSRKVHLIIIVFNGRIDKVRMHIR
  protease stability score: 1.36

## SDLEKLAEHTAKEIIHYWLTGDWKSLTELADPHVKLDIDINGRREHHHGWERVIEFFDRFRKRIDHHHIHIDSIDIQGDKVHIDGKLHVHQGDKDLTIKMTIIVIVVDGRIKSLRVIIL
  protease stability score: 2.13

## SDLEMEMKRWMELWLRMFVTGDFRTFLHLADPEYKVSAEGVSSHGRDFHIKELLRWLKEIRIHDFHVKDMDVQGDKAHSDGRHNGIVDGRNRDVNVHNEIVTIDGRLRSVTIRLE
  protease stability score: 0.534

## SDLERDAREAFEHYVNLMRTGNEHIVEHLIDPDVKIEIGDKQVVGREEVLKLFHHLVKHLRWHDTKLHHVHYQGDKMLLDMRLDGTIDGRRLDTRVIWFILKIDGVWFIKYQHYH
  protease stability score: 1.81

## SDLERHISEVFKDIIEMEETGDEEELDKLADPNVRIDIDGVELIGRESLRRWVESVVDQIKGIKKHIVIRHLRVFNGRADSDGELRIHINGKTIVRKVRIHITVVNGRLKEMQFRTE
  protease stability score: 1.19

## SDLHHIVDNLLQEWLHARLTGDEDRLLELMDPDAREDVNGRTLVGREDSWKIMLELRFRVEHWHIHRLEIQGDKIDMDIEFDVRFDVDGVPYRLRTRQKIHIDVYNGKIQRLQVHIL
  protease stability score: 0.325

## SDLHRDIQRLLEQVLRSRETGDEDHLEKYADPHARSVFDGVEFHGWEELLRVIRHIRIRRLRLTHIEVQGDKVELDLELDGEINGQRVRVHLEIHSEKINGRWIMTEVVIE
  protease stability score: 1.21

## SDLNQVFRESLEHHLHALETGDWRELYRLADPNVLVIVGDKEIHGMEEWSRILEEEMRRVKGMRIEINPTDIDFQGNKVRAHTRLHVEVDGRSVETDTEHESKKVNGRWILKRLTIR
  protease stability score: 1.16

## SDLREEVKEFLKLLVEAFETGDEEALHELMDPNTRFRYGDKDLIGMKILERWWHELFRHLGVDRFRIELRVHHVTIINGQMHNDGTLIIRQGDKEERFKINLVIEKIDGRWIIHMVIFE
  protease stability score: 0.893

## SDMDEMISRFRREVEHSMQTGDERFDHEMADPHARFWINGVLFHGRHALEMWKEELGVDNFKIRHIHIRDEKIQGNKITLDVEYHLLVNGQQVDLRVILIYRKVNGKWTLEEERLV
  protease stability score: 0.851

## SDQDHLTELAEHLFEYSLETGDEELMDKNFDPNMKLEVGEKHEHGRHVAETFSRRFDVVKSIEMKHVTTINGVAEIDGHIDGNFNGVDIRTDVRLVSLKIDGRWFIHSITFV
  protease stability score: 0.319

## SDRRELLERLAELFLHWWLTGDWKAISDNADPNVRLDIQQGDKHIHDIGRERTEEVLRKIFERFKNLKIEIKRFDMQGDKLHVDSRVTFDGVEFNMEIHNLVVDGRIREIYVHLH
  protease stability score: 1.54

## SDSDHDLEHLLELLMRAYETGNEEEIRRLVDPNARWDINGVELHGWKVMHKFLREMRPTRIRIIIDDSETIGDKMFVDGTIRLDVHIGDKLIHTERRSRLVHRKVDGKWTQTSVIID
  protease stability score: 0.68

## SDSEESSKVALELFKESVETGDERVSQELADPNYRVHYGDKTLHGREAWIRVILEMRWRTVTFKHLDFQGDKVRIEGEILGEYNGVETNFSTTLNVLKINGQWFLHSVHIQ
  protease stability score: 1.49

## SDSEKVSREAWELMLRDHETGDEEAFQNNVDPHTRIHINGVDYHGWRDFVDLMRELRIEHVTLRDYRVIGNKMHIHGQVHGEIDGRRINMHVTIIARKINGRWILEHSIFV
  protease stability score: 1.97

## SDTEHDARRVIEELSKALLTGDWRRIEELLDPNTRWVFNGQEFHGMEIVIKVLIHLRRHMTHVEFHDIHTIDGRVHSDTEFDVSLIINGKTERTRVHVEFIIRKVNGRWRIEEVRFE
  protease stability score: 2.25

## SDVDDMAHKMATLLIDLLETGDWREIRKFADPNVRIEIGDKEYHGMDYHLKHFRDLGWELHLRVERIDVVNGRILIHQEVELRFDGRHDHRKHTLIIEKIDGKWRFNEMIIS
  protease stability score: 1.09
